Experiment: yeast display, Sf9 membrane polyspecificity reagent, FACS + sequencing; frameworks hold sequencing errors
Method in brief: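 Nanobodies from a synthetic yeast display library (Saccharomyces cerevisiae BJ5465), induced 36–48 hours with galactose, were stained 1 hour at 4 °C with 10% biotinylated, detergent-solubilized Sf9 membrane reagent, enriched on streptavidin microbeads, then FACS-sorted. Anti-HA (expression) and streptavidin (reagent binding) fluorescence set low and high (top ~1%) gates. Polyreactivity labels come from the gate of origin. Genes were colony-PCR amplified, MiSeq 2 × 250 sequenced and filtered by CDR length.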

Sequence	polyreactivity (PSR sort gate)
QLQIVESGGGLVQAGGSLRLISAASGSTLAYYAMGWYRQEPGKERELVAAINWRTYYADSVKGRFTISRDNAMNTLYLQMNSLKPEDTAVYYCAAGYYLNKFYYWGQGTQVTVSS	high polyreactivity
QLQLDESRGGLVQAGRSLRLSCAASGGNFRYYAMGWYRQAPGKERELDAAISSGGSTNYADSVKVRFTISRDNAKNTVYLQMNSLKREDTAVYYCAADVIYYYAYYTYDYWGQGTQVTVSS	low polyreactivity
QLQLEESCGGLVQAGGSLRLSCAATGFIFGKYAMGWYRQAPGKQREFVAAITRSGGSTYYADSVKGRVTISRDNAKNTVFLQMFCLKPEDTAVYYCNARISERGWRYYYWGHGTQVTVSS	high polyreactivity
QLQLEESGGGLVQAGGSLRLSCAAYGSIYYYNGMGWYRQAPAKERELVAAISSSGGRTYYADSVKGRFTISRDNENNTVYLQMNSLKPEDPAVYYCYDSGFGKTGFGYDYWGQGTQVTVSS	low polyreactivity
QLQLEESGGGLVQAGGSLRLSSAASGRTFYYYAIGWYRQAPGKERELVAAISRGGSTYYADSVKGRFTISRDNAKITVYLQMHSLKPEDTAVYYCAAVLRPDRYDYWGQGTQVTVSS	high polyreactivity
QLQLHESGGVQAGGSLRLSCAAGGYISRSDVMGWYRQAPGKERELVATINNGTITYYADSVKGRFNISRDNAKNTVYLQMNSLKREDTAVHYWAVVQSDCDSLYYWGQGTQVTVSS	low polyreactivity
QLQLQESGGGLVLAGGSLRLSCSASGNISVYGSMCWYRQAPGKEREFVATIDPGTNTNYADSVKDRFTISRDNAKNTVYLQMNSLKPEDTAVSYCAVEAGSDWPYRYRGQGTQVTVSS	low polyreactivity
QLQLQESGGGLVQSGGSLRLSCAASGTISFTRDMGWYRQAPGKEREFVASIDRGASTYYADSVKGRFTISRDNAKNTVYLQMNSLKPEDTAVYYRAFIAPFYSSFAYWGQGTQVTVSS	high polyreactivity
QLQLVESGGALVQAGGSLRLSCAASGFTFSRNVMGWYRQAPGKERELVAAISSGSTYYADSVKGRFTISRDNAKKTVYLQMNSLKPEDTAVYYCAKRGRLRNYDYWGQGTKVTVSS	high polyreactivity
QLQLVESGGGLVQAGGILRLSCAASGLIFAEYAMGWYRQAPAKERELVARITSGGSTDYADSVKGRFTISRDNAKNTVYLQMNSLKPEDTAVYYCAARYYSQDKNASTASDFDYWGQGTQVTVSS	low polyreactivity
QLQLVESGGGLVQAGGSLRLSCAASGFIFHRNAMGWYRQAPGKERELVAAISGSGGSTYYADSVNGRFTISRDNAKNTVYLQMNSLKPEDTAVYYCAKRGRSTYGYDYWGQGTQVNVSS	high polyreactivity
QLQLVESGGGLVQAGGSLRLSCAASGFIFYYNVMGWYRQAPGKERELVAAIRYRGTITYYADSVKGRFTISRDIAKNTVYLQMNSLKPEDTAVYYCARRQRNYYRSSPGGDYWGQGTQVTVSS	low polyreactivity
QLQLVESGGGLVQAGGSLRLSCAASGFISWCNAMGWYRQAPGKERELVAAISWRDARTYYADSVKGRFTLSRDNAKNTVYLQMNSLKPEDTAVYYCNAVTAYVSRYLRGYRWFDYWGQGTQVTVSS	low polyreactivity
QLQLVESGGGLVQAGGSLRLSCAASGFTFRWNGMGWYRQAPGKERELVPSISSTGGSTYYADSVKGRFTISRDNAKNTVYLQMNSLKPEDTAVYYCNAVVTYHYSVTSVGSRFDYWGQGTQVTVSS	high polyreactivity
QLQLVESGGGLVQAGGSLRLSCAASGFTFYYNALGWYRQAPGKDRELVSSITRSGGRTYYAESVKGRFTISRENAKNTVYLQKNSLKPEDTAVYFCARRYPGGYYWGQGTQVTVSS	high polyreactivity
QLQLVESGGGLVQAGGSLRLSCAASGIIFIYNGMGWYRQAPGKERELVATINWSGGNTYYADSVKGRFTISRDNAKNTVYLQMNSLKPEDTAVYYCAVRGSRYWGYDYWGQGTQVTVSS	low polyreactivity
QLQLVESGGGLVQAGGSLRLSCAASGITFPFYDMGWYRQAPGKEREFVAAISWSAGNTYYADSVKGRFTISRDNAKNTVYLQMNSLKPEDTAVYYCAAYGPSYEEDYWGQGTQVTVSS	high polyreactivity
QLQLVESGGGLVQAGGSLRLSCAASGLTIWRYAKGCYRQAPGKEREFVATISQNGGRTYYADSVKGRFTISRDNAKNSVYLQMNSLKPEDTAVYYCAADDWRWGYDYWVQGTQVTVSS	high polyreactivity
QLQLVESGGGLVQAGGSLRLSCAASGNIFNYYAMGWYRQATGKERELVAAIRSGARTSYADSVKGRFTISRDNAKNTVYLQMNSLKPEDTAVYYCAASRFRWVQRDDYWGQGTQVTVSS	high polyreactivity
QLQLVESGGGLVQAGGSLRLSCAASGNNIVFYAMGRYRQAPGKERELVAAMTSGGSTNYADSVKGRFTISRDNAKNTVYLQMNSLKPEATAVYYCAARQWFAHRRWGGSRYDYWGQGTQGTVSS	low polyreactivity
QLQLVESGGGLVQAGGSLRLSCAASGRIRYIAIGWYRQAPWKERELVAAITSSGGSTYYADSVKGRFTISRDNAKYTVDLQMNRLKPEDTAVYYCNAVASLSVDYWGQGTQVTVSS	high polyreactivity
QLQLVESGGGLVQAGGSLRLSCAASGRIVKYDMGWYRQAPGKERELVAAISGSGGTTNYADSVKGRFTISRDNAKNTVYLKLNSLKPEETAVYYCAASRPRPPSSRRMDYWGQGTQVTVSS	high polyreactivity

Sequence	polyreactivity (PSR sort gate)
QLQLVESGGGLVQAGGSLRLSCAASGRTFFGYAMGWYSQAPGKERELVATIDGSDGSTFYADSGKGRFTISRDNAKNTVYLQMNSLKPEDTAVYYCAAENFWQTKEYDYWGQGTQVTVSS	low polyreactivity
QLQLVESGGGLVQAGGSLRLSCAASGRTFRINTMGWYRPAPGKERELVATITGSGGSTYYADSVKGRFTISRDNAKNTVYLQMNSLKPEDTAVYYCAAVGDQNEYDYWGQGTQVTVSS	low polyreactivity
QLQLVESGGGLVQAGGSLRLSCAASGRTFVSIALGWYRQAPGKERELFAGINWTDDSTYYADSVKGRFTISRDNAKHSVYLQMNCLKPEDTAVYYCAADQQDGLWDYQDWYDYWGPGTQVTVSS	low polyreactivity
QLQLVESGGGLVQAGGSLRLSCAASGRTFWYYTMGWYRQAPGKERELVAAISSGGRTNYADSVKGRFTISLDNAKNTVYLQMNSLKPEDTAVYYCATSRYYKYVERDYWGQGTLVTVSS	high polyreactivity
QLQLVESGGGLVQAGGSLRLSCAASGRTFYVNAMGWYRQAHGKERELVARISSSGITYYAVSVKGRFTISRDNAKNTVYLQMNSLKPEDTAVYYCAAGPWFYYWGQGTQVTVSS	low polyreactivity
QLQLVESGGGLVQAGGSLRLSCAASGRTSRRYAMGWYRQAPGKERELVAAIRGSGGSTYYADSVKGRFTISRDNAKNTVYLQMNSLKPEDTAVYYCAADWSFWSLAYPSAKFYAEFDYWGQGTQVTVSS	high polyreactivity
QLQLVESGGGLVQAGGSLRLSCAASGSIFDQNAMGWYRHAPGKERELVAAISKSGGSTYYADSVKGRFTISRDNAKNTVYLQLNSLKPEDTAVYYCAARYHYPGNWYNYWGQGTQVTVSS	low polyreactivity
QLQLVESGGGLVQAGGSLRLSCAASGSIFGGYAMGWYRQAPGKERELVAAITGTDTTNYADSVKGRFTISRDNAKNTVYLQMNSLKPEDTAVFYCNADYQPVAAVYNYDYWGQGTQVTVSS	low polyreactivity
QLQLVESGGGLVQAGGSLRLSCAASGSIFHGNVMGRYRHAPGKEMELVAAISSSGGSTYYADSVKGRFTISRDIAKNTVYLQMNSLKPEDNAVYYCAARNRYWGQGTQVTVSS	high polyreactivity
QLQLVESGGGLVQAGGSLRLSCAASGSIFLIYDMGWYRQAPGKEMELVAAISNSVGSTYADSVKGRFTISRDNAKNTVYLQMNSLKPEDTAVYYCNADSGPIDGRGGYWGQGTQVTVSS	low polyreactivity
QLQLVESGGGLVQAGGSLRLSCAASGSIFRWYTMGWYRQAPGKERELVAAISSGGSTNYADSVKGRFTISRDNAKNTVYLQMNSLKPEDTAVYYCAARAIYKSKYDYWGQGTQVTVSS	high polyreactivity
QLQLVESGGGLVQAGGSLRLSCAASGSIFYGYAKGWYRQAPGTERELVAAINTSGGSTFYADSVKGRFTISRDNANNTVYLQMNSLKPEDTAVYYCAAERYRYRSTDTMGYWGQGTQVTVSS	low polyreactivity
QLQLVESGGGLVQAGGSLRLSCAASGSILSRYAMGWYRQAPGKEMELVAGITRGGSTNYADSVKGRFTISRDNAKNTVYLHMNSLKPEDTAVYYGAKASRRFLTLGYDYWGQGTQVTVSS	high polyreactivity
QLQLVESGGGLVQAGGSLRLSCAASGSTFGPYTMGWYRQAPGKERELVATISSGGSTYYADSVKGRFTISRDNAKNTVYLQMNSLKPEDTAVYYCAARYWSIYDYWGQGTQVTVSS	low polyreactivity
QLQLVESGGGLVQAGGSLRLSCAASGSTFPLYAMGWYRQSPGKERELVASITTGGGNTYYADSVKGRFTISRDNAKNTVYLKMNSLKPEDTAVDYCAKPYHIGLSGRRTYDYWGQGTQVTVSS	high polyreactivity
QLQLVESGGGLVQAGGSLRLSCAASVFTLRGYAMGWYRQATCKERELVADISGGGSTDYADSVKVRFTISRDNAKNTVYLQMNSLKPEDTAVYYCAAYGYLWWEMDYWGQGTQVTVSS	high polyreactivity
QLQLVESGGGLVQAGGSLRLSCAHSGRTFYVNAIGWSRQAPRKERELVATITDRGGRSYYADSVKGRFTISRDNAKNSVYLQMTSLKPEDTAVYYCAATRWYEVDYWGQGTQVTVSS	low polyreactivity
QLQLVESGGGLVQAGGSLRLSCAPSGYTFYLYAMGWYRQAPGKARELDAAISNRGGSTYYADSVKGRFTISRDNAKNTVYLQMKSLKPEDTAFYYCAATVGKAGGRYYDRRYYWGQGTQVTVSS	high polyreactivity
QLQLVESGGGLVQAGGSLRLSCASGLTFYWYAMGWYRQAPGKERELVAAINVRGGSTYYADSVKGRFTISRDNAKNTVYLQMNSLKPEDTAGYDCASYYPGFSYRYDYWGQGSQVTVSS	low polyreactivity
QLQLVESGGGLVQAGGSLRLSCASSGFTLTYAMGWDRQAPGKERELVAAISSSGVRTYYADSVKGRFTISRDNAKNTVYLQKNSLKPEDTALYYCNAFIHGSRSYISDYYWGQGTQVTVSS	high polyreactivity
QLQLVESGGGLVQAGGSLRLSSAASGRTFRWNAMGWYRQAPGKERELVAAISSGGSTYYADSVKGRFTISRDNAKNTVYLQMNSLKPEDTAVYYCAKTSFKYRWSYPVISMDYWGQGTQVTVSS	high polyreactivity
